The text below walks through data of paper PMC5618543, “Differences in Sulfotyrosine Binding amongst CXCR1 and CXCR2 Chemokine Ligands” (International Journal of Molecular Sciences, 2017).

In one test the target is T1, CXCL8 (Homo sapiens, UniProt P10145).
T1 sequence (P10145 23-99): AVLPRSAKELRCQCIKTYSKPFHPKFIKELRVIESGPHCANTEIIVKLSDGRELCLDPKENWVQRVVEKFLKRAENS
Description: 1H-15N HSQC NMR titration ([…] sY, […]N-CXCL8). The test is classed as binding.

A further test concerns the target CXCR2 (Homo sapiens) (UniProt P25025). To be noted: cited from earlier work.
For another test, the target named is CXCR1 (Homo sapiens) (UniProt P25024). To be noted: cited from earlier work.

The term Kd denotes the free concentration of one partner at which half of the binding sites on the other are occupied at equilibrium, for simple one-to-one binding.

CXCR2 (Homo sapiens), sequence (P25025 whole entry): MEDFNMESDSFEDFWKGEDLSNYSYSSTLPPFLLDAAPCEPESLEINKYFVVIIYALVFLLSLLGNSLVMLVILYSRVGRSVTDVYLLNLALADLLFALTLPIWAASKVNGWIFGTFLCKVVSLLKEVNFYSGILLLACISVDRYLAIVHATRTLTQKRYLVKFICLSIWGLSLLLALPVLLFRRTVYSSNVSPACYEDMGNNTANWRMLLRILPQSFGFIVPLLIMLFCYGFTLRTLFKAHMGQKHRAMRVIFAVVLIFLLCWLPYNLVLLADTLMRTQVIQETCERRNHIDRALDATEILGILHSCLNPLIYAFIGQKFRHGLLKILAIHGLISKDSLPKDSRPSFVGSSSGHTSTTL
CXCR1 (Homo sapiens), sequence (P25024 whole entry): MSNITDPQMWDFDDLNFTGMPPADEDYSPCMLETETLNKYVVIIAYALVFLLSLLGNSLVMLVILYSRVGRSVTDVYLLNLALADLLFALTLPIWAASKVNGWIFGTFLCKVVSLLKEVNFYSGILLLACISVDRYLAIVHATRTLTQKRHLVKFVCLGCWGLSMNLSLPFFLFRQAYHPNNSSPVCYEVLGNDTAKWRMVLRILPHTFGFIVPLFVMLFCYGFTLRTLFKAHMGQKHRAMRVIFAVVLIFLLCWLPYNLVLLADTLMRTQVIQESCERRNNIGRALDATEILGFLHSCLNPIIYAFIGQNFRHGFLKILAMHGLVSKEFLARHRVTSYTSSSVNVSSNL

Regarding `N[C@@H](Cc1ccc(OS(=O)(=O)O)cc1)C(=O)O` [sY, sulfotyrosine], binding on CXCL8 was put at a Kd of 35200 ± 1950 µM.

As for CXCL5 (from UniProt P42830), the figures for the Kd with CXCR2 (Homo sapiens) and in the test with CXCR1 (Homo sapiens) were 0.011 µM and 0.04 µM, respectively.
